Tested on: TKCC05 cells and normal human pancreatic stellate cells
Test: Co-culture assay of TKCC05 cells and normal human pancreatic stellate cells
Assay type: cell-based
Protocol: For survival assays, cells (5,000/well) were plated in 96-well plates and allowed to attach for 24 h. Cells were then treated for 24 h with 10D7 (5 μg/ml) or isotype control IgG (5 μg/ml) before addition of gemcitabine (0.02 to 500 nM) and incubation for another 72 h. In assays assessing the effect of cytotoxin-conjugated antibodies, cells were treated for 12 h with 10D7-MMAE, IgG-MMAE, 10D7 or IgG (0.0625 to 1.0 μg/ml) then washed before the media was replaced with standard growth medium for 72 h. The relative number of viable cells was then measured by adding the CellTiter AQueous One Solution Reagent to each well and measuring absorbance at 490 nm as described above. In co-culture assays, mKO2 expressing TKCC05 PDAC cells (2,000 cells/well) were co-cultured with GFP expressing normal human pancreatic stellate cells (2,000 cells/well) for 24 h in a 1:1 mixture of TKCC05 and hPSC growth medium before treatments with 10D7-MMAE, IgG-MMAE, 10D7 or IgG (0.0625 to 1.0 μg/ml), IgG or 10D7 (1 μg/ml) or PBS as above. Cells were imaged by wide-field fluorescence microscopy and the total area of confluence for each cell type was quantified by image analysis using Image J software.
The generated antibody-drug conjugate (ADC), 10D7-MMAE, has an average drug-antibody ratio (DAR) of 4.5 to 4.7, and retains the functional ability to induce phosphorylation of CDCP1 and Src (see Example 7). […]

B1: 10D7-MMAE (conjugate)
VH: EVQLQQFGAELVKPGASVKISCKASGYSFSDFNIEWLKQSHGKSLEWIGDINPNYDSTNYNQKFKGRATLTVDKSSSTAYMEVRSLTSEDTAVYYCARLGYGYAMDYWGQGTSVTVSS
VL: NIVMTQSPQSMSMSVGERVTLSCKASENVGAYVSWFQQKPDQSPKLLILAASNRYTGVPARFIGSGSATDFTLTISSVQAEDLADYHCGQSYTYPYTFGGGTKLEIKRADAAPTVS
response of TKCC05 cells (CDCP1 expressing cells): very sensitive | response of normal human pancreatic stellate cells (CDCP1 non-expressing cells): unresponsive

— patent publication US20220389113A1, “BINDING PROTEINS TO CUB DOMAIN-CONTAINING PROTEIN (CDCP1)” (COMMONWEALTH SCIENTIFIC AND INDUSTRIAL RESEARCH ORGANISATION, priority 2019, published 2022)
